Results reported in the supplement of paper PMC9428881.
± gives the standard error.

Assay: background-corrected fluorescence of 3'-dye-labeled ssDNA relative to brightest sequence (3'-GCGCG) (fraction); higher = brighter dye fluorescence (less quenching)
Experimental: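 Single-stranded DNA is synthesized in situ on glass microarrays by 5'->3' photolithographic synthesis, with a Cy3 or Cy5 phosphoramidite coupled at the 3' end next to all 1024 permuted pentamers P1-P5. The construct is 5'-T5-(ACGT minus P5..P1 trinucleotides)-T15-P5P4P3P2P1-dye-3'; the dye is a 3' terminal modification, not part of the sequence. Arrays were scanned at 532 nm (Cy3) or 635 nm (Cy5), background from unlabeled oligos was subtracted, and values are averaged over 10 replicate features per array and at least 3 independent syntheses.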

Sequence | background-corrected fluorescence (dye: Cy3 (3' terminal)) | background-corrected fluorescence (dye: Cy5 (3' terminal))
TTTTTGCATCATGAGCATGCTTTTTTTTTTTTTTTTGCTA [ATCGT] | 0.55 ± 0.032 | 0.399 ± 0.041
TTTTTGCATCATGATCAGCATTTTTTTTTTTTTTTTGCGT | 0.6597 ± 0.003 | 0.516 ± 0.061
TTTTTGCATCATGATCATCATTTTTTTTTTTTTTTTGCGG [GGCGT] | 0.603 ± 0.016 | 0.543 ± 0.032
TTTTTGCATCATGATCATGATTTTTTTTTTTTTTTTGCGC [CGCGT] | 0.596 ± 0.02 | 0.48 ± 0.034
TTTTTGCATCATGATCATGCTTTTTTTTTTTTTTTTGCGA [AGCGT] | 0.675 ± 0.036 | 0.616 ± 0.044
TTTTTGCATCATGATGAGCATTTTTTTTTTTTTTTTGCCT [TCCGT] | 0.444 ± 0.011 | 0.356 ± 0.021
TTTTTGCATCATGATGATCATTTTTTTTTTTTTTTTGCCG [GCCGT] | 0.519 ± 0.027 | 0.389 ± 0.029
TTTTTGCATCATGATGATGATTTTTTTTTTTTTTTTGCCC [CCCGT] | 0.378 ± 0.032 | 0.272 ± 0.016
TTTTTGCATCATGATGATGCTTTTTTTTTTTTTTTTGCCA [ACCGT] | 0.519 ± 0.0069 | 0.403 ± 0.029
TTTTTGCATCATGATGCGCATTTTTTTTTTTTTTTTGCAT [TACGT] | 0.529 ± 0.02 | 0.394 ± 0.02
TTTTTGCATCATGATGCTCATTTTTTTTTTTTTTTTGCAG [GACGT] | 0.526 ± 0.033 | 0.425 ± 0.029
TTTTTGCATCATGATGCTGATTTTTTTTTTTTTTTTGCAC [CACGT] | 0.415 ± 0.035 | 0.321 ± 0.028
TTTTTGCATCATGATGCTGCTTTTTTTTTTTTTTTTGCAA [AACGT] | 0.594 ± 0.0062 | 0.463 ± 0.026
TTTTTGCATCATGCGCAGCATTTTTTTTTTTTTTTTGATT [TTAGT] | 0.579 ± 0.035 | 0.419 ± 0.05
TTTTTGCATCATGCGCATCATTTTTTTTTTTTTTTTGATG [GTAGT] | 0.53 ± 0.0055 | 0.409 ± 0.037
TTTTTGCATCATGCGCATGATTTTTTTTTTTTTTTTGATC [CTAGT] | 0.442 ± 0.024 | 0.335 ± 0.028
TTTTTGCATCATGCGCATGCTTTTTTTTTTTTTTTTGATA [ATAGT] | 0.555 ± 0.039 | 0.481 ± 0.032

Sequence | background-corrected fluorescence (dye: Cy3 (3' terminal)) | background-corrected fluorescence (dye: Cy5 (3' terminal))
TTTTTGCATCATGCTCAGCATTTTTTTTTTTTTTTTGAGT | 0.659 ± 0.023 | 0.539 ± 0.029
TTTTTGCATCATGCTCATCATTTTTTTTTTTTTTTTGAGG [GGAGT] | 0.67 ± 0.013 | 0.529 ± 0.043
TTTTTGCATCATGCTCATGATTTTTTTTTTTTTTTTGAGC [CGAGT] | 0.556 ± 0.024 | 0.422 ± 0.08
TTTTTGCATCATGCTCATGCTTTTTTTTTTTTTTTTGAGA [AGAGT] | 0.679 ± 0.038 | 0.593 ± 0.044
TTTTTGCATCATGCTGAGCATTTTTTTTTTTTTTTTGACT [TCAGT] | 0.473 ± 0.034 | 0.357 ± 0.022
TTTTTGCATCATGCTGATCATTTTTTTTTTTTTTTTGACG [GCAGT] | 0.536 ± 0.016 | 0.433 ± 0.063
TTTTTGCATCATGCTGATGATTTTTTTTTTTTTTTTGACC [CCAGT] | 0.418 ± 0.027 | 0.3 ± 0.02
TTTTTGCATCATGCTGATGCTTTTTTTTTTTTTTTTGACA [ACAGT] | 0.527 ± 0.019 | 0.411 ± 0.026
TTTTTGCATCATGCTGCGCATTTTTTTTTTTTTTTTGAAT [TAAGT] | 0.558 ± 0.032 | 0.436 ± 0.035
TTTTTGCATCATGCTGCTCATTTTTTTTTTTTTTTTGAAG [GAAGT] | 0.564 ± 0.02 | 0.44 ± 0.024
TTTTTGCATCATGCTGCTGATTTTTTTTTTTTTTTTGAAC [CAAGT] | 0.461 ± 0.024 | 0.345 ± 0.021
TTTTTGCATCATGCTGCTGCTTTTTTTTTTTTTTTTGAAA [AAAGT] | 0.603 ± 0.021 | 0.522 ± 0.041
TTTTTGCATGAGCAGCAGCATTTTTTTTTTTTTTTTCTTT | 0.504 ± 0.016 | 0.353 ± 0.032
TTTTTGCATGAGCAGCATCATTTTTTTTTTTTTTTTCTTG [GTTCT] | 0.489 ± 0.023 | 0.371 ± 0.032
TTTTTGCATGAGCAGCATGATTTTTTTTTTTTTTTTCTTC [CTTCT] | 0.382 ± 0.043 | 0.282 ± 0.018
TTTTTGCATGAGCAGCATGCTTTTTTTTTTTTTTTTCTTA [ATTCT] | 0.5004 ± 0.0042 | 0.373 ± 0.022
